Measured values reported in the nanobody polyreactivity screen of Harvey et al. (2022).

Assay: yeast display, Sf9 membrane polyspecificity reagent, FACS + sequencing; frameworks hold sequencing errors
Method in brief: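 A synthetic nanobody library was expressed on Saccharomyces cerevisiae BJ5465 by galactose induction for 36–48 hours. The library was stained for 1 hour at 4 °C with 10% biotinylated, detergent-solubilized Sf9 membrane reagent and enriched with streptavidin microbeads before FACS. Low and high (top ~1%) gates were set on anti-HA fluorescence for expression and streptavidin fluorescence for reagent binding, and each polyreactivity label reflects the gate of origin.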
In the case of “QVQLVESGGGLVQAGGILRLSCAASGRTFSSNAMGWYRQAPGKERELVAVISSGGSTYYADSVNGRFTISRDNAKNTVYLQLNSLKPEDTAVYYCAAAGGPSGYYYESDYWGQGTQVTVSS”, the “polyreactivity (PSR sort gate)” value was “high polyreactivity”. In the case of “QVQLVESGGGLVQAGGILRLSCAASGRTFVRNTMGWYRQAPGKERELVAVISRSGGSTYYADSVKGRFTISRDNAKNTVYLQMNRLKPEDTAVYYCNADTYSAGDYWGQGSQVTVSS”, the “polyreactivity (PSR sort gate)” value was “high polyreactivity”. In the case of “QVQLVESGGGLVQAGGILRLSCAASGRTFYYYAMGWYRHERGKERELVAAISISGGTNYADSVKGRFTISRDNAKNTVYLQMNSLKPEDTAVYYCAAYLRHESPSIWDRYDYWGQGTQVTVSS”, the “polyreactivity (PSR sort gate)” value was “low polyreactivity”. With “QVQLVESGGGLVQAGGILRLSCAASGRTIDHYAKGSYRKAPGKERELVAAISTTGGSTYYADSVKGRFTISRDNAKNTVYLQMNSLKPADTAVYYCAARGLRTGGYWGQGTQVTVSS” the “polyreactivity (PSR sort gate)” value was “high polyreactivity”. In the case of “QVQLVESGGGLVQAGGILRLSCAASGRTLDYSAMGWYRQAPGKERELVASITSGGSTNYADSVKGRFTISRDTAKNTVYLQMNSLKPEDTEVYYCAADSAFYRDVKSNYWGQGTQVTVSS”, the “polyreactivity (PSR sort gate)” value was “low polyreactivity”. For “QVQLVESGGGLVQAGGILRLSCAASGRTYGGYAMGWYRQAPGKERELVASITSTGGTHYSDSVKGRFTISRDNAKNTVYLQMNSLKPEDTAVYYFAAGYYYWKYDYWGQGTQVTVSS”, the “polyreactivity (PSR sort gate)” value was “high polyreactivity”. For “QVQLVESGGGLVQAGGILRLSCAASGSIFGSYAMGWYRQAPGKERELVAGITYRGSSTYYADSVKGRFTISRDNAKNTVYLQMNSLKPEDTAVYYCAADPVFDEYDYWGQGTQVTVSS”, the “polyreactivity (PSR sort gate)” value was “low polyreactivity”. With “QVQLVESGGGLVQAGGILRLSCAASGSIFRVYAMGWYRQAPGKVRELVASISRRGGSTYYADSVKGRFTISRDNAKNTVYLQMNSLKPEDTAVYYCAATTYSGFDYCGQGTQVTVSS” the “polyreactivity (PSR sort gate)” value was “high polyreactivity”. In the case of “QVQLVESGGGLVQAGGILRLSCAASGSIFSSYGMGRYRQAPGKERELVAAITRGGGSTYYADSVKGRFTISRDNAKNTVYLQMNSLKPEDTAVYYCAARGWRYSYTSVLFDYWGQGTQVTVSS”, the “polyreactivity (PSR sort gate)” value was “high polyreactivity”. In the case of “QVQLVESGGGLVQAGGILRLSCAASGSIFYGNDMGWYRQEPGKEREFVAGISWSGGSTYYADSVKGRFTISRDNAKNTVYVQMNSLKPEETAVYYCAAVRWGSYTLSDDYWGQGTQVTVSS”, the “polyreactivity (PSR sort gate)” value was “low polyreactivity”. With “QVQLVESGGGLVQAGGILRLSCAASGSIYKPNTMGWYRQAPGKERELVAAITRGGRTKYADSVKGRFTISRDNAKNTVYLQMNSLKPEDTAVYYCNKARYTVISYDEYDDWGQGTQVTGSS” the “polyreactivity (PSR sort gate)” value was “high polyreactivity”. In the case of “QVQLVESGGGLVQAGGILRLSCAASGSIYSGYAMGWYIQAPAKEREFVAAITSTSGSTYYADSVKVRFTISRDNAKNSVYLQMNSLKPEDTAVYYWAGYRYRYYSYDSWGQGTHVTVSS”, the “polyreactivity (PSR sort gate)” value was “high polyreactivity”. In the case of “QVQLVESGGGLVQAGGILRLSCAASGSTFAYNAMGWYRQEPGKERELFAAISWSGGTTYYADSVKGRFTISRDNAKTTVYLQMNSLKPEDTAVYYCNAVYYPSYQQVRAHDYWGQGTQVTVSS”, the “polyreactivity (PSR sort gate)” value was “high polyreactivity”. For “QVQLVESGGGLVQAGGILRLSCAASGSTFDYNTMGWYRQAPGKERELVAAISESGGSTYYADSVKGRFTISRDNAKNTVYLQMNSLKPEDTAVYYCATDDFGGYFGEYDYWGQGTQVTVSS”, the “polyreactivity (PSR sort gate)” value was “low polyreactivity”. With “QVQLVESGGGLVQAGGILRLSCAASGSTFGYYTMGWYRQAPGKEREFVAAITRRGGSTYYADSVKGRFTISRDNAKNTVYLQMNSLKPEDTAVYYCAAESRYQPHYGYWGQGTQVTVSS” the “polyreactivity (PSR sort gate)” value was “high polyreactivity”. With “QVQLVESGGGLVQAGGILRLSCAASGSTLTYYTMGWYRQAPGKERELVAHISWSSGRTYYADSVKGRFTISRDNAKNTVYLQMNSLKPEDTAVYYCNADRTYYRGLDYWGQGTQVTVSS” the “polyreactivity (PSR sort gate)” value was “high polyreactivity”. With “QVQLVESGGGLVQAGGILRLSCAASGSTMGYYPMGWYRQEPGKERELVAAIRYSDGNTYYADSVKGRFTISRDTAKNTVYLQMNSLKPEDTAVYYCAADGGYYGRDYWGQGTQVTVSS” the “polyreactivity (PSR sort gate)” value was “high polyreactivity”. For “QVQLVESGGGLVQAGGILRLSCAASGYIFVRNAMGWYRQAPGKERELVAAISGSGGSTYYADSVKGRFTISRDNAKNTVYLQMNRLKPEDTEVYYCAADYATVTWRGIAYDYWGQGTQVTVSS”, the “polyreactivity (PSR sort gate)” value was “low polyreactivity”. In the case of “QVQLVESGGGLVQAGGILRLSCAATGTTFSYYPMGWYRQAPGKERELVAAITNGGSTYYADSVKGRFTISRDNAKNTVYLQMNSLKPEDTAVYYCAADVSYWPYARYQRYPRYDYWGQGTQVTVSS”, the “polyreactivity (PSR sort gate)” value was “low polyreactivity”. In the case of “QVQLVESGGGLVQAGGILRLSCASSGITFRQYAMEWYRQAPGKERELVATITSRGGSTYYADSVKGRFTISRDNAKNSVYLQMISLKPEDTADYYCAAKTPTKDRGSDFDYWGQCTQVTVSS”, the “polyreactivity (PSR sort gate)” value was “high polyreactivity”. In the case of “QVQLVESGGGLVQAGGILRLSCASSGSICYWYAMGWYRQAPGKERELVASITGGGSKKYAESLKGRFTISRDNANNSVYLQINSLKREDTAVYYCAARYGQPWGSRYYYWGQVTQVTVSS”, the “polyreactivity (PSR sort gate)” value was “high polyreactivity”. In the case of “QVQLVESGGGLVQAGGILRLSCDASGSTFVLYAMGWYRQAPGKERELVAAIRKSGGSTYYADSVKGRFTISRDNAKIYVYLQMNSLKPEDTAVYYCNATNYIYEYHYWGQGTQVTVSS”, the “polyreactivity (PSR sort gate)” value was “low polyreactivity”. In the case of “QVQLVESGGGLVQAGGILRLSFAASGRIFTHYAMAGYRPAPGKERELVAAIRYSGGRTYYADSVKGRFTLSRDNAKNTVYLQMNSRKPEDTAVYYCAAEGFGGSFRSFYTIYDYWGQGTLVTVSS”, the “polyreactivity (PSR sort gate)” value was “high polyreactivity”. With “QVQLVESGGGLVQAGGILRLSSDTSRSIFSTNGMGWYRPAHGKERELVAAMSTGGRKYYADSVKVRFTISRDNAKNTVYLQMNSLIPEDSAVFYCAIDHWTTSYDEGYYWGQGTQVTVSW” the “polyreactivity (PSR sort gate)” value was “low polyreactivity”. In the case of “QVQLVESGGGLVQAGGILRLSWAASGSTFTAYAMGWYRQAPGKERELVAAINTSGGNTYYADSVKGRFTISRDNAKNTVYFQMNSLKPEDTAVYYCAADYKARYSEKFDYWGQGTQVSVSS”, the “polyreactivity (PSR sort gate)” value was “low polyreactivity”. In the case of “QVQLVESGGGLVQAGGILRLTCAASGRIFIYYAMGWYRQAPGKERELVAAISWGGGRTYYADSVKGRFTISRDNAKNTVYLQMNSLKPEDTAVYNCAAGVYTGQHEYDYWGQGTQVTVSS”, the “polyreactivity (PSR sort gate)” value was “low polyreactivity”. With “QVQLVESGGGLVQAGGILSLSSAAYGRISVFYTMGWYIQAPGKERELVAVIRTAGGRTKYADSVKGRFTISRDNAKNTVYLQMNSLKPEDTAVYYCADRVVRYGYKYYYWGQGTQVTVSS” the “polyreactivity (PSR sort gate)” value was “low polyreactivity”. In the case of “QVQLVESGGGLVQAGGNLRLSCAASGFIFTRYAMGWYRPAPGKERELVAAISTSGDRTYYADSVKGRFTISRDNAKNTVYVQMHSLKPEDTAVYFCAVVRRRSVGRYVYWGQGTQVTVSS”, the “polyreactivity (PSR sort gate)” value was “high polyreactivity”. For “QVQLVESGGGLVQAGGRHRLSCAASGRTFWGYGMGWYRQPPGKDRELVATISSGGSTYYEDSVKGRFTISRDNAMNTVYLQMNSLKPEDTAVYYCAARPPRSYWRYQSDYWGLGTQVTVSS”, the “polyreactivity (PSR sort gate)” value was “high polyreactivity”. With “QVQLVESGGGLVQAGGRIRLSCAASGSTYGLNAMGWYRQDPGNEREMVAAITFISGSTNYADSVKGRFSISRDNAKNTVYLQMNSLKPEDTAVYYCAGDSVYYAGYDDDYWGLGTQVTVSS” the “polyreactivity (PSR sort gate)” value was “low polyreactivity”.
